Results reported in the supplement of paper PMC11246515.
± gives the standard deviation of the averaged measurements.

Experiment: total protein half-life in vivo (active degradation + dilution); higher = more stable protein
[1] = E. coli NCM3722 delta-clpP delta-lon delta-hslV, growth: N-lim chemostat, doubling time 6 h
[2] = E. coli NCM3722 delta-clpP, growth: N-lim chemostat, doubling time 6 h
[3] = E. coli NCM3722 delta-hslV, growth: N-lim chemostat, doubling time 6 h
[4] = E. coli NCM3722 delta-lon, growth: N-lim chemostat, doubling time 6 h
[5] = E. coli NCM3722 delta-smpB, growth: N-lim chemostat, doubling time 6 h
[6] = wild type E. coli NCM3722, growth: C-lim chemostat, doubling time 3 h
[7] = wild type E. coli NCM3722, growth: C-lim chemostat, doubling time 6 h
[8] = wild type E. coli NCM3722, growth: C-lim chemostat, doubling time 12 h
[9] = wild type E. coli NCM3722, growth: N-lim chemostat, doubling time 6 h
[10] = wild type E. coli NCM3722, growth: N-lim chemostat, doubling time 12 h
[11] = wild type E. coli NCM3722, growth: P-lim chemostat, doubling time 6 h
[12] = wild type E. coli NCM3722, growth: P-lim chemostat, doubling time 12 h

| Sequence | total protein half-life in vivo [1] [h] | total protein half-life in vivo [2] [h] | total protein half-life in vivo [3] [h] | total protein half-life in vivo [4] [h] | total protein half-life in vivo [5] [h] | total protein half-life in vivo [6] [h] | total protein half-life in vivo [7] [h] | total protein half-life in vivo [8] [h] | total protein half-life in vivo [9] [h] | total protein half-life in vivo [10] [h] | total protein half-life in vivo [11] [h] | total protein half-life in vivo [12] [h] |
| --- | --- | --- | --- | --- | --- | --- | --- | --- | --- | --- | --- | --- |
| MQTEHVILLNAQGVPTGTLEKYAAHTADTRLHLAFSSWLFNAKGQLLVTRRALSKKAWPGVWTNSVCGHPQLGESNEDAVIRRCRYELGVEITPPESIYPDFRYRATDPSGIVENEVCPVFAARTTSALQINDDEVMDYQWCDLADVLHGIDATPWAFSPWMVMQATNREARKRLSAFTQLK | 4.63 ± 0.67 | 4.86 ± 0.81 | 4.79 ± 0.39 | 4.68 ± 0.56 | 4.42 ± 0.16 | 3.09 ± 0.08 | 6.016 ± 0.044 | 8.96 ± 0.18 | 4.39 | 7.89 | 5.61 | 13.1 ± 1.7 |
| MQVKTQSCVVAGKKTVAVTEQTIDWNNNGTLVQITRGGICGSDLHYYQEGKVGNFMIKAPMVLGHEVIGKVIHSDSSELHEGQTVAINPSKPCGHCKYCIEHNENQCTDMRFFGSAMYFPHVDGGFTRYKMVETSQCVPYPAKADEKVMAFAEPLAVAIHAAHQAGELQGKRVFISGVGPIGCLIVSAVKTLGAAEIVCADVSPRSLSLGKEMGADVLVNPQNDDMDHWKAEKGYFDVSFEVSGHPSSVNTCLEVTRARGVMVQVGMGGAMAEFPMMTLIGKEISLRGSFRFTSEFNTAVSWLANGVINPLPLLSAEYPFTDLEEALRFAGDKTQAAKVQLVF |  |  |  |  |  | 1.348 ± 0.0073 | 2.71 | 5.81 |  |  |  |  |
| MQVSRRQFFKICAGGMAGTTAAALGFAPSVALAETRQYKLLRTRETRNTCTYCSVGCGLLMYSLGDGAKNAKASIFHIEGDPDHPVNRGALCPKGAGLVDFIHSESRLKFPEYRAPGSDKWQQISWEEAFDRIAKLMKEDRDANYIAQNAEGVTVNRWLSTGMLCASASSNETGYLTQKFSRALGMLAVDNQARVUHGPTVASLAPTFGRGAMTNHWVDIKNANLVVVMGGNAAEAHPVGFRWAMEAKIHNGAKLIVIDPRFTRTAAVADYYAPIRSGTDIAFLSGVLLYLLNNEKFNREYTEAYTNASLIVREDYGFEDGLFTGYDAEKRKYDKSSWTYELDENGFAKRDTTLQHPRCVWNLLKQHVSRYTPDVVENICGTPKDAFLKVCEYIAETSAHDKTASFLYALGWTQHSVGAQNIRTMAMIQLLLGNMGMAGGGVNALRGHSNIQGLTDLGLLSQSLPGYMTLPSEKQTDLQTYLTANTPKPLLEGQVNYWGNYPKFFVSMMKAFFGDKATAENSWGFDWLPKWDKGYDVLQYFEMMKEGKVNGYICQGFNPVASFPNKNKVIGCLSKLKFLVTIDPLNTETSNFWQNHGELNEVDSSKIQTEVFRLPSTCFAEENGSIVNSGRWLQWHWKGADAPGIALTDGEILSGIFLRLRKMYAEQGGANPDQVLNMTWNYAIPHEPSSEEVAMESNGKALADITDPATGAVIVKKGQQLSSFAQLRDDGTTSCGCWIFAGSWTPEGNQMARRDNADPSGLGNTLGWAWAWPLNRRILYNRASADPQGNPWDPKRQLLKWDGTKWTGWDIPDYSAAPPGSGVGPFIMQQEGMGRLFALDKMAEGPFPEHYEPFETPLGTNPLHPNVISNPAARIFKDDAEALGKADKFPYVGTTYRLTEHFHYWTKHALLNAILQPEQFVEIGESLANKLGIAQGDTVKVSSNRGYIKAKAVVTKRIRTLKANGKDIDTIGIPIHWGYEGVAKKGFIANTLTPFVGDANTQTPEFKSFLVNVEKV | 5.155 ± 0.0061 | 4.77 ± 0.55 | 6.6 | 5.502 ± 0.033 | 4.72 | > 4 | 5.8 | 11.4 ± 0.86 | 5.89 | 10.4 ± 0.35 | 4.79 ± 0.5 | 8.459 ± 0.046 |
| MQVSVETTQGLGRRVTITIAADSIETAVKSELVNVAKKVRIDGFRKGKVPMNIVAQRYGASVRQDVLGDLMSRNFIDAIIKEKINPAGAPTYVPGEYKLGEDFTYSVEFEVYPEVELQGLEAIEVEKPIVEVTDADVDGMLDTLRKQQATWKEKDGAVEAEDRVTIDFTGSVDGEEFEGGKASDFVLAMGQGRMIPGFEDGIKGHKAGEEFTIDVTFPEEYHAENLKGKAAKFAINLKKVEERELPELTAEFIKRFGVEDGSVEGLRAEVRKNMERELKSAIRNRVKSQAIEGLVKANDIDVPAALIDSEIDVLRRQAAQRFGGNEKQALELPRELFEEQAKRRVVVGLLLGEVIRTNELKADEERVKGLIEEMASAYEDPKEVIEFYSKNKELMDNMRNVALEEQAVEAVLAKAKVTEKETTFNELMNQQA [P0A850] | 6.11 ± 0.15 | 5.78 ± 0.82 | 5.67 ± 0.022 | 6 ± 0.012 | 4.96 ± 0.061 | 3.12 ± 0.18 | 5.738 ± 0.013 | 10.4 ± 0.89 | 5.35 ± 0.36 | 9.03 ± 0.57 | 5.01 ± 0.23 | 9.5 ± 0.3 |
| MQWQTKLPLIAILRGITPDEALAHVGAVIDAGFDAVEIPLNSPQWEQSIPAIVDAYGDKALIGAGTVLKPEQVDALARMGCQLIVTPNIHSEVIRRAVGYGMTVCPGCATATEAFTALEAGAQALKIFPSSAFGPQYIKALKAVLPSDIAVFAVGGVTPENLAQWIDAGCAGAGLGSDLYRAGQSVERTAQQAAAFVKAYREAVQ [Q6BF16] | 4.76 |  |  |  |  | 2.04 | 3.84 | 8.18 |  |  |  |  |
| MQYKDENGVNEPSRRRLLKVIGALALAGSCPVAHAQKTQSAPGTLSPDARNEKQPFYGEHQAGILTPQQAAMMLVAFDVLASDKADLERLFRLLTQRFAFLTQGGAAPETPNPRLPPLDSGILGGYIAPDNLTITLSVGHSLFDERFGLAPQMPKKLQKMTRFPNDSLDAALCHGDVLLQICANTQDTVIHALRDIIKHTPDLLSVRWKREGFISDHAARSKGKETPINLLGFKDGTANPDSQNDKLMQKVVWVTADQQEPAWTIGGSYQAVRLIQFRVEFWDRTPLKEQQTIFGRDKQTGAPLGMQHEHDVPDYASDPEGKVIALDSHIRLANPRTAESESSLMLRRGYSYSLGVTNSGQLDMGLLFVCYQHDLEKGFLTVQKRLNGEALEEYVKPIGGGYFFALPGVKDANDYFGSALLRV |  | 5.58 |  |  | 5.85 | 2.17 ± 0.16 | 4.4 | 7.71 |  |  |  |  |
